Test: yeast display, Sf9 membrane polyspecificity reagent, FACS + sequencing; frameworks hold sequencing errors
How it was run: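 Synthetic nanobody libraries on Saccharomyces cerevisiae BJ5465 were galactose-induced for 36–48 hours, stained 1 hour at 4 °C with 10% biotinylated, detergent-solubilized Sf9 membrane reagent and enriched on streptavidin microbeads. FACS then separated cells into low and high (top ~1%) gates by anti-HA (expression) and streptavidin (reagent binding) fluorescence. Genes were colony-PCR amplified, MiSeq 2 × 250 sequenced and CDR-length filtered. A clone's polyreactivity label is that of its gate of origin.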

Sequence	polyreactivity (PSR sort gate)
QVQLVESGGGLVQAGGSLRLSCAASGSTFVPYAMGWYRQAPGKERELVAAITDSGGSTSYADSVKGRFTISRDKAKNSVYLQMNSLKPEDTAVYYCAAQTRAIVQKYPGDDYWGQGTQVTVSS	low polyreactivity
QVQLVESGGGLVQAGGSLRLSCAASGRIFIPYALGWYRQAPGKERELVAAISYRGGSTYYADSVKGRFTISRDNAKNTVYLQMNSLKPEDTAVYYCANYDYWGQGTQVTVSS	high polyreactivity
QDQLVESGGGLVQAGGSLGLRCAATGSTFTYYTMGWYRQAAGKERELVAAISRTTGSTYYADSVKGRFTISRDNAKNTVYLQMNSLKPEDTAVYYCAAQSYKILLYFIGTAGDGYWGQGTQVTVSS	low polyreactivity
QVQLVESGGGLVQAGGSLRLSSPASGLIFGAYAMGWYRQERGKERELVAAISYSGGRTYYADSVKGRFTMSRDNAKNTVYLQLNSLKPEDTAVYYCNALWYLSLSYRYDYWGQGTQVTVSS	high polyreactivity
QVQLVESGGGLVQAGGSLRLICAASGRTFGIYAMGWYSPAPGKERELVATISWRGGSTYYADSVKGRFTISRDNAKNSVYLQMNSLKPEDTGVYYCAAGYYPYWGQGTQVTVSS	low polyreactivity
QVQLVESGGGLVQAGGSLRLSCAASGFTFVNYVMGWYRQAHGKERELVAAISRSGGSTYYADSVKGRFTISRDNAKNTVYLQMNSLKPEDTAVYYCAARWFYRAGFNYWGQGTQVTVSS	high polyreactivity
QVQLVESGGGLVQAGGSLRLSCAASGYIIYVYAMGWYRQAPGKERELVADISLNGGSTYYADSVKGRFTISRDNAKNTVYLEMNSLKPEDTAVYYCAADGWLYRTYWYYYWGQGTQVTVSS	high polyreactivity
QVQLVESGGGLVQAGGSLRLSCAASGNIFNGNAMGWYRQAPGKERELVAAIRGNGGITYYADSVKGRFTISRDNAKNTVYLQMNSLKPEDTAVYYCAVRSAWVYGIGRYYWGQGTQVTVSS	high polyreactivity
QVQLVESGGGLVQAGGTLRLSCADSGSTFAGNGMGWYRQAPGKERQLVAGIDVTGGSTYYADSVKGRFTISRDNAKNTVYLQMNSLKPEDTAVYYCAARVVRYGYKYYYWGQGTQVTVSS	low polyreactivity
QVQLVESGGGLVQAGGSLRLSCAASGIIFWFYAMGWYRQAPGKERELVAVISWNGDSTYYADSVKGRFTISRDNAKNTVYLQMNSLKPEDTEVYYCSAETYLGVYGSEYDYWGQGTQVTVSS	low polyreactivity
QVQLVESGGGLVQAGGSLRLSCAASGSTFRKYAMGWYRQAPGKEREFVAAITWSTGTTYYADSVKGRFTISRDNAKNTVYLQMNSLKPEDTAVYYCAADSQPPHELYESIEHESWGQGTQVTVSS	low polyreactivity
QVQLVESGGRLVQAGGSLRLSCAASGRTFRPYAMGWYRQAPGKERELVAAISSRGSSTYYADSVKGRFTISRDNAKNTVYLQMNSLKPEDTAVYYCAARSYWGGLRYDYWGQGTQVTVSS	high polyreactivity
QVQLVESGGGLVQAGGSLRLSCAASGSTFNANAMGWYRQAPGKERELVAAITAIGGSTYYADSVTGRFTISRDNAKNTVYLQMNSLKPEDTAVYYCAADFSYVYYLYDYWGQGTQVTVSS	low polyreactivity
QVQLVESGGGLVQAGGSLRLSCAASGSTFPPYAMGWYRPAPGKGRELVAAISYRDTGTYYADSVKGRFTISRDNAKNTVYLQMNSLKPEDTAVYYCAADYLIVYYFLYYYWGQGTPVTVSS	low polyreactivity
QVQLVESGGGLVQAGGSLRLSCAASGIISSTNAMGWYRQEPGKERELVAAISGRGSGTYYADSVKGRFTISRDNAKNTVYLQMNRLKPEDTAVYYCAALSNVFQWWFKTNKSRYDYWGQGTQVTVSS	high polyreactivity
QVQLVESGGGLVQAGGSLRLSCAASGRIFLYYAMGWYRQAPGKERDFVAAITYIGGSTYYADSVKGRFTISRDNAKNTVYLQMNSLKPEDTAVYDCATDGYRIDVYHPVYRYDYWGQGTQVTVSS	low polyreactivity
QVQLVESGGGIVQAGGSLRLSCAASGSTFVTHAMGCYRQAPGKEREFVAAISWNSTSTYFADSVKGRFTISRDHAKNTVYLQMNSLKPEDTAVYYCNATTFAFSPSLKGAYGYWGQGTQVTVSS	low polyreactivity
QVQLVESGGGLVHAGGSLRLSCAASGRTLWGYVMGWYREAPGKERELVAVITASGGSTYYADSVNGRFTISRDNAKNTVYLQMYSLKPEDTAVYYCNADSRAERYFWSFVENDYWVQGTQVTVSS	low polyreactivity
QVQLVESGGGLVQAGGSLRLSCAASGITLYYNAMGWYRQAPGKESELVAAITWSGSRTYYADSVKGRFTISRDNAKNTVYLQMNSLKPEDTAVSYCAADVDFWNTVEDMDYWGQGNQVTVSS	low polyreactivity
QVQLVESGGGLVQAGCSLRLSCAASGRIFWDNAMGWYRQAPGKERELVAAIDYRGGNTNYADSVKGRFTISRDNAKNTVYLQMNSLKPEDTAVYYCNAEWAVRYPGYDYWGQGTQVTVSS	low polyreactivity

Sequence	polyreactivity (PSR sort gate)
QVQLVESGGGLVQEGGSLGLSCAASGRIFIPYAMGWYRQETGKEREFVATIRWRGGRTYYADSVKGRFTISRDNAKNTVYLQLYSLKPEDTAVYYCAARSNALFRFDYWGQGTQVSVSS	high polyreactivity
QVQLVESGGGLVQAGGSLRLSCAASGSIIRRNVMGWYRQAPGKERELVAASSWSGDRTYYADSVKGRFTISRDNAKNTVYLQMNSLKPEDTAVYYCAAANASPRRYGQYDYWGQGTQVTVSS	high polyreactivity
QVQLVESGGGLVQAGGSLRLSCAASGITFVPNAMGWYRQAPGKERELVARIDNGVSTNYADSVKGRFTISRDNAKNTVYLQMNSLKPEDTAVYYCAVGYWDSRYRYDWPNSDYWGQGTQVTVSS	low polyreactivity
QVQLVESGGGLVQAGGSLRLSCAASGRTFKTYTMGWYRQEPGKERELVAVISSGGGSTNYADSVKGRFTISRDNAKNTVYLQMNSLKPEDTAVYYCAARKTGRPKYRYDYWGQGTQVTVSS	low polyreactivity
QVQLVESGGGLVQAGGSLRLSCAASGSIFTDNVMGWYRQAPGKERELVAAITYSAASTYYADSVKGRFTISRDNAKNTVYLQMNSLKPEDTAVYYCATEYYIGVNYRGDYWGQGTQVTVSS	low polyreactivity
QDQLVESGGGLVQAGGSLRLSCAASGSTFVKYAMGWYRQAAGTERELVASITKRGGSTYYADSVKGRFTISRDKAKNTVYLQMNSLKPEDTAVYYCNAARGLYNAPKYGSIGFDYWGQGTQVTESS	high polyreactivity
QVQLVESGGGLVQAGGSLRLSCAASGRTFYYNDMGWYRQAPGKERELVAAISWSGVSTSYADSVKGRFTISRDNAKNTVYLQMNSLKPEDTAVYYCAADNDGWYFHITEYDYWGQGTQVTVSS	low polyreactivity
QVQLVESGGGLVQAGGSLRLSCAASGFTFASNAMGWYRQAPGKERELVAGISRTGTTTYYADSVKGRFTISRDNAKNTVYLQMNSLKPEDTAVYYCNKAFSHQIYATGMGYWGQGTQVTVSS	high polyreactivity
QVQLVESGGGLVQAGGSLRLSCAASGFIFQPYAMGWYRQAPRKERELVAAITSRGGRTYYADSVKGRFTISRDNAKNTVYLQMNSLKPEDTAVYYCNGDIYASEYYYWGQGTQVTVSS	low polyreactivity
QVQLVEAGGGLVQAGGRLRLSCAASGIIIVPYTMGWYRQAPGKERELVAAISRSGGRTYYADSVKGRFTISRDNAKNTVYLQMNSLKPEDTAVYDCNKRSLYYGYYLYYRMDYWGQGTQVTVSS	high polyreactivity
QVQLVESGGGLVQAGGSLRLSCAASGLTIVNYAMGWYRQAPGKERELVAAITVNGGRTYYADSVKGRFTISRDNAKNTVYLQMNSLKPEDTAVYYCAAVYYRHWYTYSSDYWGQGTQVTVSS	high polyreactivity
QVQLQESGGGLVQAGGSLRLSCAASGSLFLFYTMGWYRQAPVIEREFVAGITLGTTTYNADSVKGRFTISRDNVKNTVFLQMNSLKPEDTAVYYCAVAVGHYTEFWYWGQGTQVTMSS	high polyreactivity
QVQLVESGGGLVQAGGSLRLSCAASGITFQGNAMGWYRQAPGKEREFVAAISWSGDSTYYADSVKGRFTISRDNAKNTVYLQMNSLKPEDTAVYYCAASRVIPSYPYYKYDYWGQGTQVTVSS	low polyreactivity
QVQLVESGGGLVQAGGSLRLSCAASGFTFIYYAMGWYRQAPGKERELVAAISTSGGRTYYADSVKGRFTISRDNAKNTVYLQMNCLKPEYTAVYYCAADGHYRYTSRYGLIVRYDYWGQGTQVTVSS	high polyreactivity
QVQLVESGGGLVQAGGSLRLTCAASGFIFKANAMGWYRQAPGKERELVASITFGGDSTYYADSVKGRFTISRDNAKNTVYLHMNSLKPEDTAVYYCNTRRRSYRTYYYWGQGTQVTVLS	low polyreactivity
QVQLVESGGGVVQAGGSLRLSCAATGSIFISYDTGLYRQAPGKESELVAAITWSGDSTYYADSVKARFTISRDNAKNSVYLQMNSLKPEDTAVYYCAADWYFRNQRGYYWGQGTQVTVSS	low polyreactivity
QVQLVESGGGLVQAGGSLRLSCAASGSIFISNAMGWYRQAPGKERELVAAISSSGGRTYYADSVKGRFTISRDNAKNTVYLQMNSLKPEDTAVYYCAVRGLYQGRRRYSSEYDYWGQGTQVTVSS	high polyreactivity
QVQLVESGGGLVQAGGSLRLSCAASGRTFRANAMGWYRQAPGKERELFAAISYSGGRTRYADSVKGRFTISRDNAKNTVYLQMNSLKPEDTAVYYCNRVIPTQSLRDAPGLHQVGYWGQGTQVTVSS	high polyreactivity
QVQLVESGGGLVQAGGSLRLSCAASGRIFDHNAMGWYRQAPGKERELVAAITWSGGRTYYADSVKGRFTISRDNAKNTVYLQMNSLKPEDTAVYYCNAPVSRRGGNYWGLGTQVTVSS	high polyreactivity
QDQLVESGGGLVQAGGSLRLSCAAYGSIFYVYAMGWYRQAPGKERELVAAIRRTGSSTYYADSVKGRFTISRDNAKNTVSLQMNSLKPEDTAVYYCAASYWRARAGSYDYWGQGTQVTVSS	high polyreactivity

— the nanobody polyreactivity screen of Harvey et al. (2022)
